Columns and labels:
HLA-A*02:01 [1] = experiment: IEDB peptide-MHC binding, cellular MHC/competitive/fluorescence; ≥ and ≤ were set here for values at or beyond the usual limits of such assays
HLA-A*68:02 [2] = experiment: IEDB peptide-MHC binding, purified MHC/competitive/radioactivity; ≥ and ≤ were set here for values at or beyond the usual limits of such assays
HLA-A*02:03 = experiment: as above
HLA-A*02:06 = experiment: as above
HLA-A*02:02 = experiment: as above
HLA-A*68:02 [3] = experiment: IEDB peptide-MHC binding, cellular MHC/competitive/fluorescence; ≥ and ≤ were set here for values at or beyond the usual limits of such assays
HLA-A*02:01 [4] = experiment: IEDB peptide-MHC binding, purified MHC/competitive/radioactivity; ≥ and ≤ were set here for values at or beyond the usual limits of such assays; conditions: source organism: Influenza A virus
[5] = source organism: Vaccinia virus WR
[6] = source organism: Influenza A virus
[7] = source organism: Mammarenavirus brazilense
[8] = source organism: Mammarenavirus choriomeningitidis

Row | Sequence | IC50 (HLA-A*02:01 [1]; [5]) | IC50 (HLA-A*68:02 [2]; [5]) | IC50 (HLA-A*02:03; [5]) | IC50 (HLA-A*02:06; [5]) | IC50 (HLA-A*02:02; [5]) | also measured
1 | SAVFKDSFL | 6060 nM | 110 nM | 536 nM | 1140 nM | 231 nM | 
2 | ATAGLTHMMI |  |  |  |  |  | IC50 (HLA-A*02:01 [1]; [6]): 12100 nM; IC50 (HLA-A*68:02 [2]; [6]): 138 nM; IC50 (HLA-A*02:03; [6]): 1060 nM; IC50 (HLA-A*02:06; [6]): 2200 nM; IC50 (HLA-A*02:02; [6]): 636 nM
3 | NITTLLNET | 39200 nM | 1540 nM | 2900 nM | 2310 nM | 1300 nM | 
4 | GLISLILQI |  |  |  |  |  | IC50 (HLA-A*68:02 [3]; [6]): 12400 nM; IC50 (HLA-A*02:03; [6]): 5.4 nM; IC50 (HLA-A*02:06; [6]): 205 nM; IC50 (HLA-A*02:02; [6]): 27 nM
5 | NIKISLNEIL | 9630 nM | 1610 nM | 1390 nM | 557 nM | 705 nM | 
6 | PLHIVCSKT | 7940 nM | 1880 nM | 2150 nM | 3890 nM | 997 nM | 
7 | LSNCVHPAV |  |  |  |  |  | IC50 (HLA-A*02:01 [1]; [7]): 12200 nM; IC50 (HLA-A*68:02 [2]; [7]): 682 nM; IC50 (HLA-A*02:03; [7]): 1100 nM; IC50 (HLA-A*02:06; [7]): 461 nM; IC50 (HLA-A*02:02; [7]): 427 nM
8 | IVFGIYKDNL | 5460 nM | 628 nM | 792 nM | 48 nM | 187 nM | 
9 | LMYKGLPWNV |  |  |  |  |  | IC50 (HLA-A*68:02 [3]; source organism: SARS-CoV1): 5400 nM; IC50 (HLA-A*02:03; source organism: SARS-CoV1): 5.3 nM; IC50 (HLA-A*02:06; source organism: SARS-CoV1): 37 nM; IC50 (HLA-A*02:02; source organism: SARS-CoV1): 1.8 nM
10 | STFNMWREIL | 6000 nM | 67 nM | 907 nM | 3360 nM | 3120 nM | 
11 | KINEMVDELV | 26400 nM | 4960 nM | 492 nM | 3060 nM | 587 nM | 
12 | ALCKVTVPT |  |  | 130 nM | 210 nM | 110 nM | IC50 (HLA-A*68:02 [3]; [5]): ≥ 70000 nM
13 | YAGTIKESLL | 21900 nM | 1910 nM | 4040 nM | 1760 nM | 1020 nM | 
14 | YVIRHVDGKI | 8590 nM | 22 nM | 114 nM | 522 nM | 621 nM | 
15 | ILGFVFTL |  |  |  |  |  | IC50 (HLA-A*68:02 [3]; [6]): ≥ 70000 nM; IC50 (HLA-A*02:01 [4]): 1.2 nM
16 | FVNFNSVKNL | 8720 nM | 121 nM | 318 nM | 2200 nM | 2020 nM | 
17 | ALMDCIIFES |  |  |  |  |  | IC50 (HLA-A*02:01 [1]; [8]): 6230 nM; IC50 (HLA-A*68:02 [2]; [8]): 507 nM; IC50 (HLA-A*02:03; [8]): 16 nM; IC50 (HLA-A*02:06; [8]): 13 nM; IC50 (HLA-A*02:02; [8]): 2.1 nM
18 | AMDSNTLEL |  |  |  |  |  | IC50 (HLA-A*68:02 [3]; [6]): ≥ 70000 nM; IC50 (HLA-A*02:03; [6]): 524 nM; IC50 (HLA-A*02:06; [6]): 1950 nM; IC50 (HLA-A*02:02; [6]): 254 nM

Row | Sequence | IC50 (HLA-A*02:01 [1]; [5]) | IC50 (HLA-A*68:02 [2]; [5]) | IC50 (HLA-A*02:03; [5]) | IC50 (HLA-A*02:06; [5]) | IC50 (HLA-A*02:02; [5]) | also measured
19 | KTVKNVDII | 8730 nM | 1160 nM | 1790 nM | 698 nM | 607 nM | 
20 | ILKDPRIASI | 5030 nM | 4520 nM | 1030 nM | 4000 nM | 3160 nM | 
21 | LVKESMASL | 14300 nM | 2070 nM | 9.5 nM | 136 nM | 1120 nM | 
22 | NITTLLNETA | 5680 nM | 1720 nM | 106 nM | 1130 nM | 218 nM | 
23 | SIRCVKYLL | 7820 nM | 244 nM | 56 nM | 2880 nM | 107 nM | 
24 | SIAMLKSKNI | 14000 nM | 2100 nM | 55 nM | 259 nM | 1090 nM | 
25 | SAEVERLMEL | 7910 nM | 2640 nM | 2500 nM | 1250 nM | 1280 nM | 
26 | LTSVDIETAI | 6730 nM | 221 nM | 2150 nM | 3130 nM | 509 nM | 
27 | NASKTINALV | 8460 nM | 21 nM | 274 nM | 3220 nM | 765 nM | 
28 | KTPDYPLIDI | 5550 nM | 1250 nM | 249 nM | 725 nM | 1120 nM | 
29 | TTNNLLEQL | 40600 nM | 48 nM | 1420 nM | 3040 nM | 122 nM | 
30 | EATFIDVHI | 10700 nM | 0.13 nM | 862 nM | 3430 nM | 1660 nM | 
31 | LITLILSNKL | 7660 nM | 1490 nM | 293 nM | 633 nM | 225 nM | 
32 | PASISSVLTI | 5910 nM | 4510 nM | 83 nM | 1550 nM | 1360 nM | 
33 | AMWLLLLSI |  |  |  |  |  | IC50 (HLA-A*68:02 [3]; source organism: SARS-CoV1): 27700 nM; IC50 (HLA-A*02:03; source organism: SARS-CoV1): 205 nM; IC50 (HLA-A*02:06; source organism: SARS-CoV1): 268 nM; IC50 (HLA-A*02:02; source organism: SARS-CoV1): 357 nM
34 | ILGFVFTLTV |  |  |  |  |  | IC50 (HLA-A*68:02 [3]; [6]): 5020 nM
35 | TITTFIPISA | 9690 nM | 304 nM | 176 nM | 4840 nM | 4060 nM | 
36 | LTGTFVTAFI | 5050 nM | 109 nM | 596 nM | 413 nM | 672 nM | 

— the Immune Epitope Database (IEDB)
